# According to patent US20070219129A1, “hsp90 decoy peptides and uses thereof” (priority 2005, published 2007):
# Entries after “also recorded” stand apart in the source; their conditions may differ. Ends that are not written are not given here.
# B1: B2 (301-320) (peptide)
# peptide: APELFVLPPELVLEVPLEHP
# B2: B1 (291-311) (peptide)
# peptide: LPLLLQAPDEAPELFVLPPE
# B3: B3 (311-330) (peptide)
# peptide: LVLEVPLEHPTLEWFAALGL
# B4: TSB2 (peptide)
# peptide: RKKRRQRRRAELVLEVPLEHPTLE
# Assays:
# B16 melanoma cells = experiment: Viability of B16 melanoma cells in culture (LDH release); assay type: cell-based; conditions: even at 100 μg/mL
# murine facialis arteries = experiment: ACh-induced vasodilation of isolated, pressurized facialis arteries after acute peptide exposure; design: species or system C57BL/6 mice; conditions: 10 μg/mL, 10 min pre-treatment, vs vehicle control
# From the text: The B2 peptide was also shortened to 15 aa (AELVLEVPLEHPTLE) with the TAT PTD (RKKRRQRRR) added at the N-terminal as described by Pagano and associates.^6 (Note that the initial A residue is a linker.) This redesign made a new decoy peptide (RKKRRQRRR-AELVLEVPLEHPTLE), which we called TSB2. In designing a control peptide, TSB(Ctr) (RKKRRQRRR-AALVLAVPLAHPRLA), we reasoned that if E were important for binding, then replacing E with A would result in a peptide that would fail to bind to hsp90 or another heatshock protein essential to chaperone-dependent signaling and possibly mitochondrial function and therefore fail to impair vasodilation. To test these ideas, TSB2 and TSB(Ctr) (10 μg/mL) were incubated with separatefacialis arteries from healthy C57BL/6 male mice, whose vasodilation is mediated 100% by eNOS.^9 Ten minutes later, excess peptides were removed by changing the buffer and ACh-dose response curves of the preconstricted and pressurized vessels determined as before.^9
# [1] = biological target: T1, heat shock protein 90 (hsp90), endogenous in bovine aortic endothelial cells (BAEC) (bovine, UniProt A0AAA9SQM8); experiment: peptide at 10 ug/mL in BAEC lysate, eNOS immunoprecipitation, western blot for hsp90
# [2] = biological target: T1, heat shock protein 90 (hsp90), …; experiment: eNOS immunoprecipitation from treated BAEC cultures, western blot for hsp90 (FIG. 2)
Molecule,percent decrease of hsp90 association with eNOS [1] [%],further results
"RKKRRQRRRAELVLEVPLEHPTLE [TSB2, RKKRRQRRR-AELVLEVPLEHPTLE]",–,viability of B16 melanoma cells (LDH release) (B16 melanoma cells): no significant effects; also recorded: no direct effect
RKKRRQRRR-AALVLAVPLAHPRLA [TSB(Ctr)],–,effect on ACh-induced vasodilation (in words) (murine facialis arteries): no effect
B1,~80,–
B2,~80,–
B3,~80,–
B4,–,hsp90 association with eNOS relative to PEP1-treated or untreated cultures [2]: 0.25 fraction of control level
